Consider 1 molecule from patent US20250171533A1 (NEXTPOINT THERAPEUTICS, published 2025).

The target of test [1] is T1, KIR3DL3 expressed on cells (human, UniProt Q8N743 26-410). Kind of test: cell-based or functional assay.
In test [2] the target is T1, KIR3DL3 expressed on cells. Kind of test: flow cytometry on 300.19-KIR3DL3 cells, anti-human PE secondary, gMFI. The method, then: (§1) Flow cytometric analysis of primary antibody binding was detected using an anti-human PE secondary antibody. The mean and standard deviation of duplicate data points are shown. Data performed in duplicate was entered into GraphPad Prism software and the EC₅₀ was determined using a 4-parameter nonlinear regression equation.
A general note: In flow cytometry, cells or beads pass a laser one at a time.

The target of test [3] is T2, recombinant KIR3DL3 protein (human) (human, UniProt Q8N743 26-322, limits assumed).
T2 construct: also called human KIR3DL3; killer cell immunoglobulin like receptor, three Ig domains and long cytoplasmic tail 3
Kind of test: SPR (Biacore); column kd1 (1/s); the drawn table names KIR3DL3 as analyte and NPX267 as ligand, paragraph 256 says the reverse. How it is done: (§2) The monovalent binding affinity of NPX267 to recombinant KIR3DL3 protein was determined by SPR using a Biacore instrument; KIR3DL3 protein was immobilized on a CM5 chip and NPX267 was run as the analyte. […] No off-target binding was found in a screen of greater than 5800 plasma membrane proteins.

Test [4] concerns the target T2, recombinant KIR3DL3 protein (human). Kind of test: SPR (Biacore); column ka1 (1/Ms); the drawn table names KIR3DL3 as analyte and NPX267 as ligand, paragraph 256 says the reverse. The method, then: as §2
(In general: In SPR one partner is held on a chip, and binding of the other changes the refractive index at the surface.)

The target is the same in test [5]. Kind of test: SPR (Biacore), KIR3DL3 protein immobilized on a CM5 chip, NPX267 as analyte; KIR3DL3 immobilized on CM5 chip; NPX267 IgG4 as analyte. The method, then:
as §2

Test [6] deals with T1, KIR3DL3 expressed on cells. Kind of test: flow cytometry on NK92MI cells, anti-human PE secondary, gMFI; no unit beside the number, unit taken from the axis log [ug/mL]. How it is done: as §1
NK92 MI cells were treated with NPX267 at concentrations ranging from […] to 0.0005 mg/mL for 30 minutes (FIG. 3B). Flow cytometric analysis of primary antibody binding was detected using an anti-human PE secondary antibody. The mean and standard deviation of triplicate data points are shown.

The target in test [7] is T1, KIR3DL3 expressed on cells. Kind of test: blocking assay by flow cytometry on 300.19-KIR3DL3 cells; blocked ligand: recombinant biotinylated HHLA2, detected by streptavidin-APC. The method, then: Recombinant biotinylated HHLA2 at 5 mg/mL was added to the cells and incubated for 30 minutes. The cells were treated with 1:250 of APC-streptavidin for 30 minutes to detect recombinant biotinylated HHLA2 bound to cells. […] NPX267 blocked recombinant HHLA2-Fc from binding to its inhibitory receptor KIR3DL3 in a dose dependent manner.

In test [8] the target is T1, KIR3DL3 expressed on cells. Kind of test: flow cytometry on primary human NK cells in whole blood, Donor KP63901, GeoMean of anti-human PE secondary; no unit in the table, unit taken from the axis Log [ug/ml]. How it is done: (§3) For primary human NK cells, human whole blood cells were treated with NPX267 at concentrations ranging from […] to […] for 30 minutes (FIG. 3C). Red blood cells were lysed and cells were stained with a cocktail of anti-human CD3, Anti-human CD56 and anti-human IgG4 PE. Flow cytometric analysis of primary antibody binding was detected using an anti-human PE secondary antibody.

Test [9] addresses T1, KIR3DL3 expressed on cells. Kind of test: flow cytometry on primary human NK cells in whole blood, Donor KP63935, GeoMean of anti-human PE secondary; no unit in the table, unit taken from the axis Log [ug/ml]. The method, then: as §3
Test [10] addresses T1, KIR3DL3 expressed on cells. Kind of test: flow cytometry on primary human NK cells in whole blood, Donor KP63936, GeoMean of anti-human PE secondary; no unit in the table, unit taken from the axis Log [ug/ml]. How it is done:
as §3

Usually EC50 stands for the concentration giving half of the maximal effect. The low end stands for an effect from little substance, the high end for a need for much substance. As a reminder, the koff is a measure of how fast the partners let go of each other. A word on the kon: it is a measure of how fast the partners come together. One may read the Kd as the constant that tells how readily two partners part at equilibrium.

T1 sequence (Q8N743 26-410): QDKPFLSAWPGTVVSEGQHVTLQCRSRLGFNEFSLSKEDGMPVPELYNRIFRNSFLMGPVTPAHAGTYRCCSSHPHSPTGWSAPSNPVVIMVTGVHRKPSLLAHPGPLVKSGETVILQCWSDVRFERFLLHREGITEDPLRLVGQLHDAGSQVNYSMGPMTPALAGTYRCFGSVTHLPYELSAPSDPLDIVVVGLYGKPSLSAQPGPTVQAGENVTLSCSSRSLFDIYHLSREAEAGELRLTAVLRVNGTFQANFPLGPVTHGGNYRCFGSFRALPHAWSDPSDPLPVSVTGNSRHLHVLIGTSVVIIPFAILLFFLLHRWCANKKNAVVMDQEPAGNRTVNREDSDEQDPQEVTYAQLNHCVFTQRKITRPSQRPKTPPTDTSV
T2 sequence (Q8N743 26-322 limits assumed): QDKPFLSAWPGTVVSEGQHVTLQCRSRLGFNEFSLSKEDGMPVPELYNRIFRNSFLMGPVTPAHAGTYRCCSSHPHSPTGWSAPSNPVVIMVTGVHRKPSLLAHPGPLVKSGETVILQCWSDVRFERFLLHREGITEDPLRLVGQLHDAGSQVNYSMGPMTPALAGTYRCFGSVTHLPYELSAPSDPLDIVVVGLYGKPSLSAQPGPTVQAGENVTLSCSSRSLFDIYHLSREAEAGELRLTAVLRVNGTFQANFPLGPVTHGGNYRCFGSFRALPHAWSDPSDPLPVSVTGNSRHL

B1: NPX267 (Hu26E10z7p7) (antibody, human IgG4 S228P, kappa, V domains shown)
VH: QAQLVQSGAEVKKPGASVKVSCKASGYTFTSYNIHWVRQAPGQGLEWMGYIYPGDAVTNYNQKFKGRVTMTADTSTSTVYMELSSLRSEDTAVYYCARSGNYGNYEGFAYWGQGTLVTVSS
VL: DIQMTQSPSSLSASVGDRVTITCKASQDTQSYLSWFQQKPGKAPKTLIYRANRLVDGVPSRFSGSGSGTDFTLTISSLQPEDFATYYCLQYDEFPYTFGGGTKVEIKR
notes: For staining of tumor infiltrating NK cells an APC conjugate (NPX267-APC) was used; also called humanized version of 26E10
As to B1, the “target cell death (Annexin V), NK92MI effector cells against K562 cells engineered to express HHLA2” value in test [1] worked out at 2 fold. The EC50 in test [2] amounted to 0.0684 µg/mL; in test [6], 0.131 µg/mL; in test [8], 0.0298 µg/mL; in test [9], 0.0294 µg/mL; in test [10], 0.098 µg/mL. In test [3], the koff was 0.000398 s⁻¹. The kon in test [4] was found to be 587000 M⁻¹ s⁻¹. For the same molecule, the Kd in [5] is 0.679 nM. Moreover, the “IC50 (read off the curve)” value in test [7] was approximately 0.05 µg/mL.
